Measured values published in publication PMC8637566, “ERK signaling controls productive HIF‐1 binding to chromatin and cancer cell adaptation to hypoxia through HIF‐1α interaction with NPM1” (Molecular Oncology, 2021).

Key:
[1] = target: NPM1 (nucleophosmin, B23) (UniProt P06748); test: anti-FLAG IP of transduced peptide, NPM1 blot; conditions: reference: TAT-ETD-FLAG WT; sites S641,S643
GST‐NPM1 B23.1 = target: T1, GST‐NPM1 B23.1 (UniProt P06748 1-294); test: pull-down; GST-NPM1 forms immobilised on GSH-agarose as baits, bacterially expressed and purified HIF-1α(348–826)SE or TAT-ETD-SE-FLAG peptide as prey; immunoblot with anti-HIF-1α or anti-Flag; conditions: both partners purified
T1 construct: NPM1 isoform B23.1, the most abundant form, with the C-terminal aromatic stretch; also called GST‐B23.1; B23.1 form of recombinant NPM1; source: E. coli BL21 (RIL), purified (GSH‐agarose)
T1 sequence (P06748 whole entry, canonical isoform): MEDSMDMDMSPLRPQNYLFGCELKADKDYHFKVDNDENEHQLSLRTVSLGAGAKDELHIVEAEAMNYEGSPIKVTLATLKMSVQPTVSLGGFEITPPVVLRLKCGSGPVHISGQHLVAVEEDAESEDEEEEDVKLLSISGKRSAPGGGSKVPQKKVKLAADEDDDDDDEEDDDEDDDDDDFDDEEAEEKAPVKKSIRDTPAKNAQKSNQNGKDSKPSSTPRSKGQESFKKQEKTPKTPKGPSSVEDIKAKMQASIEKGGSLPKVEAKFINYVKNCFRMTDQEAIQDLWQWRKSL

Molecule | binding against the reference [1] | binding result (GST‐NPM1 B23.1)
HIF‐1α ETD, 616-658 (from UniProt Q16665) TAT-ETD-SA-FLAG | lost | 
TTTATTDELKTVTKDRMEDIKILIAEPSPTHIHKETTSATSSP (peptide, UniProt Q16665 616-658, looked up, HIF-1α ERK targeted domain (ETD), residues 616–658, Ser641 to Glu; source: E. coli, purified) [TAT‐ETD(SE)‐FLAG peptide] |  | binds
